Values quoted from earlier work as cited in article PMC7340539.

Molecular target: CD47 (Homo sapiens) (UniProt Q08722)
Sequence of UniProt Q08722 (Q08722 19-323): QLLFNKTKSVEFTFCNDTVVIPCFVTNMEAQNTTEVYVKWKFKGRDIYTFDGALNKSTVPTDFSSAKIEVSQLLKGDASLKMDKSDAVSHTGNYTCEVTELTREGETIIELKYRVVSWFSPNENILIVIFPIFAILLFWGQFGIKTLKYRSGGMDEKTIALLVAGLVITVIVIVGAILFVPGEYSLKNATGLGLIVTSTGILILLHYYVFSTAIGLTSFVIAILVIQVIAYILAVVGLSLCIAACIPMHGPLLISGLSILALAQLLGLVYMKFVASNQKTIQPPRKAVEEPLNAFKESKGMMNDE

Kd: 2000 nM
Substance: SIRPα ECD (from UniProt P78324)
